# Data reported in PMC10215022.
# Assays:
# [1] = biological target: SARS-CoV-2 Omicron BA.5 spike protein, plate-bound (MSD V-PLEX) (SARS-CoV-2 Omicron BA.5)
# [2] = biological target: SARS-CoV-2 Wuhan (WT) spike protein RBD, His-tagged (SARS-CoV-2 Wuhan (WT)) (UniProt P0DTC2); assay: SPR
Substance,IC50 [1],Kd [2],koff [2],kon [2]
REGEN-COV mAb cocktail (casirivimab and imdevimab at 1:1 molar ratio),5.2 nM,,,
decavalent IgM ACE2 decoy (from UniProt Q9BYF1;P01591) (Fc fusion),,0.097 nM,3.5e-05 s⁻¹,380000 M⁻¹ s⁻¹
